# Numbering of substitutions follows the chain as printed. Numbers in names are those of the source.
# B1: 153 IgM + J*RI (anti-CD20 IgM antibody 153 with modified J-chain J*RI) (antibody)
# VH: EVQLVQSGAEVKKPGESLKISCKGSGYSFTSYWIGWVRQMPGKGLEWMGIIYPGDSDTRYSPSFQGQVTISADKSITTAYLQWSSLKASDTAMYYCARHPSYGSGSPNFDYWGQGTLVTVSS
# VL: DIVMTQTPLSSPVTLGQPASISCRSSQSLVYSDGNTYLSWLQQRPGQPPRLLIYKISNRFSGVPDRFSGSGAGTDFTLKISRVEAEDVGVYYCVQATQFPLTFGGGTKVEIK
# chain: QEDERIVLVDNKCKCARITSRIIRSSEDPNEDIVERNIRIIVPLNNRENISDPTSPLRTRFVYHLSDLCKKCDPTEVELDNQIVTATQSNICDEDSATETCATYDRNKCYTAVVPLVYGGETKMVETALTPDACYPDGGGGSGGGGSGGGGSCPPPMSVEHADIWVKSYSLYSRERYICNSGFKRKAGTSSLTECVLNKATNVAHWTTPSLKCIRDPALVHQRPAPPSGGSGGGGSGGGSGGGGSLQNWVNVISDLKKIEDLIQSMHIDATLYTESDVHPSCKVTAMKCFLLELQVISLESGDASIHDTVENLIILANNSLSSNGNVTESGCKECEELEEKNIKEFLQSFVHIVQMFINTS
# B2: KD-RI (anti-PD-L1 IgG with human IL-15Ralpha sushi domain and human IL-15 fused to its C-terminus) (antibody)
# heavy: not shown
# light: QSALTQPASVSGSPGQSITISCTGTSSDVGAYNYVSWYQQHPGKAPKLMIYDVSNRPSGVSNRFSGSKSGNTASLTISGLQAEDEADYYCSSYTSSSTRVFGTGTKVTVLGQPKANPTVTLFPPSSEELQANKATLVCLISDFYPGAVTVAWKADGSPVKAGVETTKPSKQSNNKYAASSYLSLTPEQWKSHRSYSCQVTHEGSTVEKTVAPTEC
# notes: Heavy chain fusion protein and light chain as described in U.S. Pat. No. 10,407,502
# B3: h3C5 IgM + J*RI (anti-PD-L1 IgM pentamer with modified J-chain J*RI) (antibody)
# VH: QVQLQESGPGLVKPSETLSLTCTVSGFSLTSYDISWIRQPPGKGLEWIGVIWTGVGTNYNPSLKSRVTISVDTSKNQFSLKLSSVTAADTAVYYCARDPYYYGMDYWGQGTLVTVSS
# VL: DIQMTQSPSSLSASVGDRVTITCRASQDISIWLSWYQQKPGKAPKLLIYKASNLHTGVPSRFSGSGSGTDFTLTISSLQPEDFATYYCLQSQSFPRTFGQGTKLEIK
# chain: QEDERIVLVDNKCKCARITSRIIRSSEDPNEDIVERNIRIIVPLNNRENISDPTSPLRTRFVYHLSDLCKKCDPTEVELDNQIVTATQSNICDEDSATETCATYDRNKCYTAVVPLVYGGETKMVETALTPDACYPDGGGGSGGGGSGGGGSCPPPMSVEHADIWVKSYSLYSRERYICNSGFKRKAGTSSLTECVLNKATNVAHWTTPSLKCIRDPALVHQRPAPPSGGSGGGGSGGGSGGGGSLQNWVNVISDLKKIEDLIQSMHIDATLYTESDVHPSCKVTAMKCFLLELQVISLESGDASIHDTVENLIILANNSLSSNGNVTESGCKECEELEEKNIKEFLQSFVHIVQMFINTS
# notes: IgM pentamer; Third chain is the modified J-chain J*RI (J* Y102A - IL-15Ralpha sushi - IL-15); also called H1-3C5 + J*RI; h3C5 + J*RI
# B4: h3C5 IgM + J* (anti-PD-L1 IgM pentamer with J-chain variant Y102A, no IL-15) (antibody)
# VH: B3 VH
# VL: B3 VL
# chain: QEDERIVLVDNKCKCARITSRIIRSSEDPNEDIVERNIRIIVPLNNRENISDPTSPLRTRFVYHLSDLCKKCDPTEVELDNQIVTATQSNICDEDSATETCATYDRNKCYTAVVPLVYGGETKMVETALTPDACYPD
# B5: h3C5 IgM + SJ*RI (anti-PD-L1 IgM pentamer with modified J-chain SP34 scFv-J*-R-I) (bispecific antibody)
# VH: B3 VH
# VL: B3 VL
# chain: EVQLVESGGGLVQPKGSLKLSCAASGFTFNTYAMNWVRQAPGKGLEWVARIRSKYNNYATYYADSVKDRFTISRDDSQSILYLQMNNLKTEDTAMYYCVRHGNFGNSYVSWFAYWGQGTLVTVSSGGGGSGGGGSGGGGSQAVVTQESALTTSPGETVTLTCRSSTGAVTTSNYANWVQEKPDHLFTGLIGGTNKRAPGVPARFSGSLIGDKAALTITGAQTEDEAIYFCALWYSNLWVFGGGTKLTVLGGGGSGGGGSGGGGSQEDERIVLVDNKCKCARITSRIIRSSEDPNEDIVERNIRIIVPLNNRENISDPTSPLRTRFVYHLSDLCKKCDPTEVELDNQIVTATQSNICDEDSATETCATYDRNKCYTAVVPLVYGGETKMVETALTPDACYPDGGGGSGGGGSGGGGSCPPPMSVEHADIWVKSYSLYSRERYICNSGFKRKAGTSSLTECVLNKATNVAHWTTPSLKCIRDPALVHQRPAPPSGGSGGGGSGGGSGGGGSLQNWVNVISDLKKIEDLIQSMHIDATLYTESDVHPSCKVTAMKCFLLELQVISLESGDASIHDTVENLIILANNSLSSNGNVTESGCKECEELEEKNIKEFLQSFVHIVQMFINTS
# B6: 3C5 H2L2 F(ab')2 (antibody, V domains shown)
# VH: B3 VH with I48L, V71K
# VL: B3 VL with V19I
# notes: Tested as F(ab')2; also called 3C5 Fab
# B7: h3C5 IgM + JH (anti-PD-L1 IgM pentamer with J-chain fused to human serum albumin) (antibody)
# VH: B3 VH
# VL: B3 VL
# chain: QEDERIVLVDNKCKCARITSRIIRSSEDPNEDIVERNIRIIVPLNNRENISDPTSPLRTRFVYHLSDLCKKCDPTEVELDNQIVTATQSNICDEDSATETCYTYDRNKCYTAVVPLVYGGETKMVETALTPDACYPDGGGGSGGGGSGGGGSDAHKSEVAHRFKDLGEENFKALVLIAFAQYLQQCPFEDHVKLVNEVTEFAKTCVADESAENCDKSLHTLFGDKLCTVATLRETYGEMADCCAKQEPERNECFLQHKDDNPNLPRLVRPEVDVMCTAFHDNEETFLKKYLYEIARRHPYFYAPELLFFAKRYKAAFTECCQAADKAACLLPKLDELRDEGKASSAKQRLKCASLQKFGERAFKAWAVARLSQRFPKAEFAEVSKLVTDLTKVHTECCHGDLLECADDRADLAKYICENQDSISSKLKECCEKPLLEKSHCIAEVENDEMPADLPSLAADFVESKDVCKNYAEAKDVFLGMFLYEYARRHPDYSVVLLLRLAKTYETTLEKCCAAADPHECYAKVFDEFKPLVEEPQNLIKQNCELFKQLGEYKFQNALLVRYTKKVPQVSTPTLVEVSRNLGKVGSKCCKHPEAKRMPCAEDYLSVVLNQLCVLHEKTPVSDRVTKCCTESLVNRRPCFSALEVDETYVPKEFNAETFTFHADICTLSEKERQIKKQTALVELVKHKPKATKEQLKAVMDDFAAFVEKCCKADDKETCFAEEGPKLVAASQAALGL
# notes: IgM pentamer; Third chain is the modified J-chain J15HSA (no IL-15); also called H1-3C5 + JH; hu3C5+JH
# B8: 3C5 IgM + J*RI-N4D/N65D (IL-15 double mutant N4D/N65D) (antibody)
# VH: B3 VH
# VL: B3 VL
# chain: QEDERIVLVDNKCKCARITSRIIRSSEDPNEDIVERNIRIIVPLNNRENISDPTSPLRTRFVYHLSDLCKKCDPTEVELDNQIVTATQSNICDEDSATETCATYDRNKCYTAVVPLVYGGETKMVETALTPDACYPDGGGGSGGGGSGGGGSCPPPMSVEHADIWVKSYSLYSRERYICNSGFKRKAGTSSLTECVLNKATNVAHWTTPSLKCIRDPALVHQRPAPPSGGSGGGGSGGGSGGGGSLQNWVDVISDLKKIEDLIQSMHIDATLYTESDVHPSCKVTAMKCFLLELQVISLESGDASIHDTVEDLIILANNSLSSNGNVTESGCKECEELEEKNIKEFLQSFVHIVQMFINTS
# B9: m3c5-J*RI (anti-PD-L1 human IgM pentamer with m3c5 VH/VL and modified J-chain J*RI) (antibody)
# VH: QVQLKESGPGLVAPSQSLSITCTVSGFSLTSYDISWVRQPPGKGLEWLGVIWTGVGTNYNSAFMSRLSISKDNSKSQVFLKMNSLQTDDTAMYYCVRDPYYYGMDYWGQGTSVTVSS
# VL: B3 VL with T5N, V15L, R18T, V19I, K42N, A43I, K45E, S60P, F83I, Q100G
# chain: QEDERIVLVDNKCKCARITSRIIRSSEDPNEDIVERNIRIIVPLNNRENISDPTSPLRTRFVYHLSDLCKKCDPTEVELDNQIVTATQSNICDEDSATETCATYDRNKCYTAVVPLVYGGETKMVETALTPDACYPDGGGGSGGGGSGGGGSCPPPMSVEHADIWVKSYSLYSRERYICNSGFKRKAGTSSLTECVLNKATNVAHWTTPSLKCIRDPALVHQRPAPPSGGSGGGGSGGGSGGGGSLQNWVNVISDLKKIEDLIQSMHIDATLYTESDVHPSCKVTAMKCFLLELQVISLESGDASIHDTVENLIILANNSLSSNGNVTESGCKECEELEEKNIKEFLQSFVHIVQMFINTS
# Key:
# [1] = molecular target: T1, IL-15 receptor (β and γ subunits) on human CD8 T cells and NK cells (human, UniProt P14784 27-551; P31785 23-369); test: cell-based or functional assay
# T1 sequence (looked up) 1: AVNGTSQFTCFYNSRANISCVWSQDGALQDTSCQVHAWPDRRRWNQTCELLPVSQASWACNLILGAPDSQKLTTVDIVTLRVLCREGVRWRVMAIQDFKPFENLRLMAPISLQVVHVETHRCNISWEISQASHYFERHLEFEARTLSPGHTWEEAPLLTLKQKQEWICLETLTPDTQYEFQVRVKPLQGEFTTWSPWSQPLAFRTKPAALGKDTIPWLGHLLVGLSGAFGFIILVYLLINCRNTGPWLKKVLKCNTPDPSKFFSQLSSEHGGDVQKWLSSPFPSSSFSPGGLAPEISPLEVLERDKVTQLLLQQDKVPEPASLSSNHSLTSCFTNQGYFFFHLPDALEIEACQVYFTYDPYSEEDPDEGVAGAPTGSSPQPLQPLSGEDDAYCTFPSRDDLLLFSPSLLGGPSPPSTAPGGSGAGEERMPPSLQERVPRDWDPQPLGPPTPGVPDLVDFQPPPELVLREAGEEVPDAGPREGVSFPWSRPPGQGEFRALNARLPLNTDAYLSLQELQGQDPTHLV
# T1 sequence (looked up) 2: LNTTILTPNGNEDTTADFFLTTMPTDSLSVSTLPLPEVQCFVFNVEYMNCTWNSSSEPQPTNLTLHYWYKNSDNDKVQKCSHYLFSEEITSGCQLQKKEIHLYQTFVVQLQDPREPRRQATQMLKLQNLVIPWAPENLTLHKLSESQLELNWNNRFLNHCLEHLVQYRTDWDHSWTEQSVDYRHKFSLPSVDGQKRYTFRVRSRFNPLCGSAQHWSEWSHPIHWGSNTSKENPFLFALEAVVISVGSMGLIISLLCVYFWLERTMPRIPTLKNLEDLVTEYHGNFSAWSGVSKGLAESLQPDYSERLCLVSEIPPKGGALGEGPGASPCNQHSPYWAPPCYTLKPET
# PD-L1 = molecular target: T2, PD-L1 (UniProt Q9NZQ7 19-238, limits assumed); test: ELISA on PD-L1
# T2 construct: ELISA antigen; also called programmed cell death ligand-1 protein
# T2 sequence (Q9NZQ7 19-238 limits assumed): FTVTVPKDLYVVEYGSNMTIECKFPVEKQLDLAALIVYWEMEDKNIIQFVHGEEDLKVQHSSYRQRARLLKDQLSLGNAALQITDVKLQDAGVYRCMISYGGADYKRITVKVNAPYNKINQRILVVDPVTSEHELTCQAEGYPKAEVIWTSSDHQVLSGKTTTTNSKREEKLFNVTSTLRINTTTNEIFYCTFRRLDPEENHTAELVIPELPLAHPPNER
# [2] = molecular target: T1, IL-15 receptor (β and γ subunits) on …; test: cell-based or functional assay; remark: listed apart in the source
# [3] = molecular target: T1, IL-15 receptor (β and γ subunits) on …; test: cell-based or functional assay; remark: listed apart in the source
# [4] = molecular target: T3, human PD-L1 expressed on HEK-293T cells (human, UniProt Q9NZQ7 19-290); test: high-throughput flow cytometry on HEK-293T cells expressing human PD-L1 and its alanine mutants
# T3 construct: whole, on cells
# T3 sequence (Q9NZQ7 19-290): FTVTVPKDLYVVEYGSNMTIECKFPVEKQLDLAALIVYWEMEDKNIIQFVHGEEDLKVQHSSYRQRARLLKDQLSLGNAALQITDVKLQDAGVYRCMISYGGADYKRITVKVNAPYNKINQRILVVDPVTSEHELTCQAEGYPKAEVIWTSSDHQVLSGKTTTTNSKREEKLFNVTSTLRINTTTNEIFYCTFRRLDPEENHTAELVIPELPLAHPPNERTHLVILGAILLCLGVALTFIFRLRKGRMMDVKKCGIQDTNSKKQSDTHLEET
# Procedure: The epitope that the 3C5 H2L2 (VH: SEQ ID NO: 91, VL: SEQ ID NO: 94) antibody binds to on human PD-L1 was mapped using Alanine-scanning mutagenesis. Epitope mapping was performed by constructing an Alanine scan library of human PD-L1 which was then expressed on HEK-293T cells. Binding of the 3C5 H2L2 F(ab′)2 to each HEK-293 transfected PD-L1 mutant version was evaluated by high-throughput flow cytometry.
# [5] = molecular target: T1, IL-15 receptor (β and γ subunits) on …; test: cell-based or functional assay; remark: listed apart in the source
# [6] = molecular target: T1, IL-15 receptor (β and γ subunits) on …; test: cell-based or functional assay; remark: listed apart in the source
# [7] = molecular target: T4, IL-15 receptor (β and γ subunits) on cynomolgus CD8 T cells (cynomolgus, UniProt Q38J85 27-551; A0A2K5VGJ6 23-369); test: cell-based or functional assay
# T4 sequence (looked up) 1: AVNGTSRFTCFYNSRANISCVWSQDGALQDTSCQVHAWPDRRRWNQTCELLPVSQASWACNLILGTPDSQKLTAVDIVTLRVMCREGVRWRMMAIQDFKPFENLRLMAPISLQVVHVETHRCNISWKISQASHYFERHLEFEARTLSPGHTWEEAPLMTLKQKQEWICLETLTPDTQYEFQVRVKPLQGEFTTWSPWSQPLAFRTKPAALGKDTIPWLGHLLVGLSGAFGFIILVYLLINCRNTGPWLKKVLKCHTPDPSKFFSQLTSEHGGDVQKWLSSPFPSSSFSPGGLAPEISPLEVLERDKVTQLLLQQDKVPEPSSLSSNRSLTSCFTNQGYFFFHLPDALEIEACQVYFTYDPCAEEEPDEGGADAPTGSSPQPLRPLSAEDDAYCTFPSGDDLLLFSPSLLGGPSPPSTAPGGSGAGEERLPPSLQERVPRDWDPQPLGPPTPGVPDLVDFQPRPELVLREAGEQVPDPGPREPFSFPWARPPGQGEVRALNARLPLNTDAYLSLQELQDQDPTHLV
# T4 sequence (looked up) 2: T1 sequence (looked up) 2 with T14A, A16T, T22S, H141R, T228S, A326P
Binder,CD8+ T cell proliferation (Ki-67) EC50 [1] [nM],Kd (PD-L1) [nM],"NK cell proliferation (Ki-67) EC50, Donor 230 [2] [nM]","NK cell proliferation (Ki-67) EC50, Donor 403 [2] [nM]","CD8+ T cell proliferation (Ki-67) EC50, Donor 230 [3] [nM]","CD8+ T cell proliferation (Ki-67) EC50, Donor 403 [3] [nM]",further results
B1,0.64,,,,,,
B2,0.51,1.33,,,,,
B3,0.1,0.04,0.027,0.027,0.31,0.51,
B4,,,> 80,> 80,> 80,> 80,
B5,,,0.63,0.71,0.03,0.34,
B6,,,,,,,binding result [4]: binds
B7,> 100,0.05,,,,,
B8,,,,,,,"CD8+ T cell proliferation (Ki-67), potency against the constructs with WT IL-15 [5]: 50 fold reduced potency; NK cell proliferation (Ki-67), potency against the constructs with WT IL-15 [5]: 100 fold reduced potency"
B9,,,,,,,"human CD8+ T cell proliferation (Ki-67), average EC50 [6]: 3.22 nM; cynomolgus CD8+ T cell proliferation (Ki-67), average EC50 [7]: 6.85 nM"

# — US20230203119A1 (IGM BIOSCIENCES, published 2023)
